Experimental data as given in patent publication US10124019B2, “Compositions and their use for removing cholesterol” (Cornell University, priority 2009, dated 2018).

Legend:
[1] = test system: NPC1-deficient, NPC2-deficient, apparently normal, and U18666A-treated normal cells; test: GC/MS measurement of total free cholesterol; type: cell-based, human; settings: normal cells treated with 1 μM U18666A
Experimental: FIGS. […]. Charts showing GC/MS measurement of cyclodextrin effects on total free cholesterol levels in NPC1-deficient, NPC2-deficient, apparently normal, and U18666A-treated normal cells. […] Cells were treated with 0.9 mM MβCD or HPβCD for 1 day in growth medium. At the end of the experiment, cellular lipids were extracted and analyzed by GC/MS. Data represent averages±SEM of two independent experiments normalized to control average value for each experiment.

[2] = test system: U18666A-treated GM05659 cells; test: LSO filipin assay in U18666A-treated apparently normal fibroblasts; settings: GM05659 treated with various concentrations of U18666A (FIG. 14A)
Experimental: Cells were plated in 384-well assay plates at a density to produce ≈80-90% confluency by experiment completion and treated with U18666A at indicated concentrations for 24 hour before addition of various concentrations of either MβCD or HPβCD for another 24 hours, during which indicated U18666A levels were maintained. At the end of the experiment, cells were fixed with 1% PFA and stained with 50 μg/mL filipin. Images were acquired using an ImageXpressMICRO imaging system with a 10× objective. […] (A) Cholesterol accumulation, as measured by the LSO filipin assay, at different concentrations of U18666A. MβCD (B) and HPβCD (C) LSO filipin dose-response curves at three different U18666A concentrations. […] Data represent averages±SEM of two independent experiments (n=12 for control and n=6 for treated, where n is total number of wells per condition used for quantification).

WT Fbs (GM05659) [3] = test: rhASM, LSO filipin quantification in wild-type fibroblasts; type: cell-based, human; settings: all doses of rhASM tested (0, 0.2, 1.8 μg/mL)
Experimental: (§1) FIG. 29 A,B. Decreased LSO cholesterol accumulation and increased acid SMase activity are achieved in NPC1 human fibroblasts by increasing amounts of rhASM. WT (GM5659) and NPC (GM03123) Fbs were incubated with 0, 0.2 and 1.8 μg/mL rhASM for 24 hours. To remove surface-bound label, the cells were further incubated for 15 minutes with growth medium without the enzyme. The cells were washed thoroughly with PBS and either lysed and assayed for acid SMase activity (A) or fixed and stained with filipin for imaging and quantification (B). Each data point in plot (A) is representative of three wells in an experiment, p<0.05. Plot (B) represents LSO ratios normalized to the untreated NPC Fb […] values (average of 16-20 images from two independent experiments±SEM), p<0.005.
Cells were plated onto poly-d-lysine-coated 35-mm coverslip dishes in a medium containing 10% FBS. […]
Images were analyzed using Metamorph (version 7.0 r4) image analysis software from Molecular Devices (MDS Analytical Technologies). […] The average filipin and LSO ratio was calculated as described previously (Pipalia 2006). The LSO ratio was calculated based on low-thresholded region and high-thresholded intensities in the filipin image as described previously (Pipalia 2006).

NPC (GM03123) Fbs [4] = test: rhASM enzyme replacement, LSO filipin quantification in NPC fibroblasts; type: cell-based, human
Experimental: FIGS. 27 A-C. Graph showing the effect of SMase restoration on human NPC1 cells (exogenous acid SMase decreases cholesterol accumulation in LSOs in human NPC fibroblasts). Parallel sets of human WT (GM05659) and NPC (GM03123) Fbs were incubated in medium alone or, in the case of the NPC fibroblasts, medium containing 3 μg/mL recombinant human acid SMase (rhASM). Two days later, the cells were washed thoroughly with PBS and either lysed and assayed for acid SMase activity (A), or fixed and stained with filipin for imaging and quantification (B). […] Scale bar, 15 μm. The quantified data in the bar graph represent LSO ratios normalized to the WT Fb values (average of 60-66 images from three independent experiments±SEM). C) Another human NPC Fbs (GM18453) was incubated with 3 μg/mL rhASM for 24 h, unlike 48 h in NPC1 (GM03123). Quantified data shown in bar chart are the normalized LSO ratios (normalized to untreated NPC Fbs) in the presence and absence of recombinant enzyme. Data represents an average from two independent experiments and 30-36 images±SEM, p<0.0001.
as §1
(§2) Normal (GM05659) and NPC1 human fibroblasts (GM03123) were incubated in a medium containing 3 μg/mL recombinant human acid SMase (rhASM). Two days later, the cells were washed thoroughly with PBS, and either lysed and assayed for acid SMase activity or fixed and stained with filipin for imaging and quantification. NPC1 human fibroblasts GM18453 were treated with 3 μg/mL rhASM for 24 h before fixing, staining with filipin, imaging and quantifying.
Cells were plated onto poly-d-lysine-coated 35-mm coverslip dishes in a medium containing 10% FBS. After 1-2 days of growth, the cell monolayers were washed three times with PBS and then fixed with 3% paraformaldehyde in PBS for 20 minutes at room temperature, followed by three more washes with PBS. To detect free cholesterol, filipin was added to the fixed cells (50 μg/mL in PBS) for 45 minutes at room temperature. Finally, the cells were washed three times with PBS, and images were acquired immediately after labeling.
Images were analyzed using Metamorph (version 7.0 r4) image analysis software from Molecular Devices (MDS Analytical Technologies). All images were corrected for background before analysis. The average filipin and LSO ratio was calculated as described previously (Pipalia 2006). The LSO ratio was calculated based on low-thresholded region and high-thresholded intensities in the filipin image as described previously (Pipalia 2006).

WT Fbs (GM05659) [5] = test: Acid SMase activity assay after rhASM, wild-type fibroblasts; type: cell-based, human; settings: 24 hours
Experimental: as §1
Cell extracts were prepared by scraping cells into ice-cold 250 mM sucrose, followed by sonication on ice twice for 10 seconds each using a Branson Sonifier 450. To prepare the substrate, solvent from 0.1 μCi [cholinemethyl-^14C] […] The assay solution, which was added to 1.5-mL microcentrifuge tubes on ice, consisted of 50 μL assay buffer, 20 μL substrate and 20 μL of cell extract. After incubation for 60 minutes at 37° C., the reaction was terminated by adding 125 μL of chloroform:methanol (2:1, v/v). The assay tubes were vortexed for 1 minute and then centrifuged 5000×g for 5 minutes at 4° C. […]

NPC (GM03123) Fbs [6] = test: Acid SMase activity assay after rhASM, NPC fibroblasts; type: cell-based, human
Experimental: as §1
Cell extracts were prepared by scraping cells into ice-cold 250 mM sucrose, followed by sonication on ice twice for 10 seconds each using a Branson Sonifier 450. […]
as §2

[7] = test system: WT (GM05659) and NPC (GM03123) human fibroblasts; test: Sub-cellular localization and uptake of Alexa555-conjugated rhASM; type: cell-based; settings: data not shown
Experimental: WT (GM5659) and NPC (GM03123) Fbs were incubated with or without 3 μg/mL Alexa555-conjugated rhASM for 24 hours. To remove surface-bound label, the cells were further incubated for 15 min with a growth medium without the enzyme. Finally, the cells were washed with PBS, fixed with 1.5% PFA, and stained with filipin for imaging and quantification. […] Color overlays for filipin (green) and rhASM-Alexa555 (red) are shown in panels (C, F and I). The images in the inset are the zoomed color overlays of the region marked in (C, F and I). Scale bar=10 μm.
For identifying the localization of rhASM in the cells, recombinant enzyme was conjugated with Alexa555 (Invitrogen) according to the manufacturer's protocol. Normal (GM05659) and NPC1 human fibroblasts (GM03123) were incubated in a medium containing 3 μg/mL Alexa555-rhASM for 24 h prior to fixing and staining with filipin. Images were acquired using standard UV and TRITC filters for filipin and Alexa555-labeled rhASM, and quantified.
To ascertain whether exogenously added rhASM was localized and processed in late endosomal organelles, WT (GM05659) and NPC (GM03123) human fibroblasts were incubated for 24 hours in the absence or presence of 3 μg/mL of Alexa555-labeled rhASM. […] The cells were then washed, fixed and stained with filipin for imaging and quantification. […]

In the case of `CCN(CC)CCO[C@H]1CC[C@@]2(C)C(=CC[C@@H]3[C@@H]2CC[C@]2(C)C(=O)CC[C@@H]32)C1` [U18666A, 3-β-[(2-diethyl-amino)ethoxy]androst-5-en-17-one], the “free cholesterol per μg cell protein” value [1] is reported as 0.074 ± 0.006 pmol/µg and the “extent of cholesterol accumulation in LSOs” value [2] is reported as “dose dependent”.

B1: rhASM: Recombinant human acid SMase prepared from transfected CHO cells (protein, UniProt P17405 47-631, looked up)
Sphingomyelin …: LALSDSRVLWAPAEAHPLSPQGHPARLHRIVPRLRDVFGWGNLTCPICKGLFTAINLGLKKEPNVARVGSVAIKLCNLLKIAPPAVCQSIVHLFEDDMVEVWRRSVLSPSEACGLLLGSTCGHWDIFSSWNISLPTVPKPPPKPPSPPAPGAPVSRILFLTDLHWDHDYLEGTDPDCADPLCCRRGSGLPPASRPGAGYWGEYSKCDLPLRTLESLLSGLGPAGPFDMVYWTGDIPAHDVWHQTRQDQLRALTTVTALVRKFLGPVPVYPAVGNHESTPVNSFPPPFIEGNHSSRWLYEAMAKAWEPWLPAEALRTLRIGGFYALSPYPGLRLISLNMNFCSRENFWLLINSTDPAGQLQWLVGELQAAEDRGDKVHIIGHIPPGHCLKSWSWNYYRIVARYENTLAAQFFGHTHVDEFEVFYDEETLSRPLAVAFLAPSATTYIGLNPGYRVYQIDGNYSGSSHVVLDHETYILNLTQANIPGAIPHWQLLYRARETYGLPNTLPTAWHNLVYRMRGDMQLFQTFWFLYHKGHPPSEPCGTPCRLATLCAQLSARADSPALCRHLMPDGSLPEAQSLWPRPLFC
With B1 the LSO filipin staining (WT Fbs (GM05659) [3]) was “remained low and constant”, the “decrease in LSO filipin intensity” value (NPC (GM03123) Fbs [4]; 0.2 μg/mL rhASM, 24 hours) was roughly 20% and the “reduction of LSO filipin intensity” value (NPC (GM03123) Fbs [4]; 1.8 μg/mL rhASM, 24 hours) was roughly 60%. The “decrease in LSO filipin intensity” value (NPC (GM03123) Fbs [4]; 3 μg/mL rhASM (FIG. 27)) was 65-70%, the LSO filipin fluorescence (NPC (GM03123) Fbs [4]; 3 μg/mL rhASM, two days (FIG. 27B)) was “dramatically decreased LSO filipin fluorescence” and the residual cholesterol accumulation (NPC (GM03123) Fbs [4]; excess acid SMase, NPC1 cells) was 25-30%. The “acid SMase activity” value (WT Fbs (GM05659) [5]; 0.2 μg/mL rhASM) was “increased slightly”, the “acid SMase activity” value (WT Fbs (GM05659) [5]; 1.8 μg/mL rhASM) was “did not increase further” and the “acid SMase activity” value (NPC (GM03123) Fbs [6]; 0.2 μg/mL rhASM, 24 hours) was “increased acid SMase activity significantly”. For the same molecule, the “defect in acid SMase activity” value (NPC (GM03123) Fbs [6]; 3 μg/mL rhASM, two days (FIG. 27A)) was “corrected”.

B2: rhASM-Alexa555: recombinant enzyme conjugated with Alexa555 (conjugate, UniProt P17405 47-631, looked up)
Sphingomyelin …: LALSDSRVLWAPAEAHPLSPQGHPARLHRIVPRLRDVFGWGNLTCPICKGLFTAINLGLKKEPNVARVGSVAIKLCNLLKIAPPAVCQSIVHLFEDDMVEVWRRSVLSPSEACGLLLGSTCGHWDIFSSWNISLPTVPKPPPKPPSPPAPGAPVSRILFLTDLHWDHDYLEGTDPDCADPLCCRRGSGLPPASRPGAGYWGEYSKCDLPLRTLESLLSGLGPAGPFDMVYWTGDIPAHDVWHQTRQDQLRALTTVTALVRKFLGPVPVYPAVGNHESTPVNSFPPPFIEGNHSSRWLYEAMAKAWEPWLPAEALRTLRIGGFYALSPYPGLRLISLNMNFCSRENFWLLINSTDPAGQLQWLVGELQAAEDRGDKVHIIGHIPPGHCLKSWSWNYYRIVARYENTLAAQFFGHTHVDEFEVFYDEETLSRPLAVAFLAPSATTYIGLNPGYRVYQIDGNYSGSSHVVLDHETYILNLTQANIPGAIPHWQLLYRARETYGLPNTLPTAWHNLVYRMRGDMQLFQTFWFLYHKGHPPSEPCGTPCRLATLCAQLSARADSPALCRHLMPDGSLPEAQSLWPRPLFC
modifications: Alexa555 label
In the case of B2, the “effect of Alexa555 conjugation on enzyme activity” value [7] is reported as “did not affect its activity”.
